Measured values published in IntAct's records for PubMed 28258151.

Target: cfah_human CFH (UniProt P08603)
Sequence (P08603 whole entry): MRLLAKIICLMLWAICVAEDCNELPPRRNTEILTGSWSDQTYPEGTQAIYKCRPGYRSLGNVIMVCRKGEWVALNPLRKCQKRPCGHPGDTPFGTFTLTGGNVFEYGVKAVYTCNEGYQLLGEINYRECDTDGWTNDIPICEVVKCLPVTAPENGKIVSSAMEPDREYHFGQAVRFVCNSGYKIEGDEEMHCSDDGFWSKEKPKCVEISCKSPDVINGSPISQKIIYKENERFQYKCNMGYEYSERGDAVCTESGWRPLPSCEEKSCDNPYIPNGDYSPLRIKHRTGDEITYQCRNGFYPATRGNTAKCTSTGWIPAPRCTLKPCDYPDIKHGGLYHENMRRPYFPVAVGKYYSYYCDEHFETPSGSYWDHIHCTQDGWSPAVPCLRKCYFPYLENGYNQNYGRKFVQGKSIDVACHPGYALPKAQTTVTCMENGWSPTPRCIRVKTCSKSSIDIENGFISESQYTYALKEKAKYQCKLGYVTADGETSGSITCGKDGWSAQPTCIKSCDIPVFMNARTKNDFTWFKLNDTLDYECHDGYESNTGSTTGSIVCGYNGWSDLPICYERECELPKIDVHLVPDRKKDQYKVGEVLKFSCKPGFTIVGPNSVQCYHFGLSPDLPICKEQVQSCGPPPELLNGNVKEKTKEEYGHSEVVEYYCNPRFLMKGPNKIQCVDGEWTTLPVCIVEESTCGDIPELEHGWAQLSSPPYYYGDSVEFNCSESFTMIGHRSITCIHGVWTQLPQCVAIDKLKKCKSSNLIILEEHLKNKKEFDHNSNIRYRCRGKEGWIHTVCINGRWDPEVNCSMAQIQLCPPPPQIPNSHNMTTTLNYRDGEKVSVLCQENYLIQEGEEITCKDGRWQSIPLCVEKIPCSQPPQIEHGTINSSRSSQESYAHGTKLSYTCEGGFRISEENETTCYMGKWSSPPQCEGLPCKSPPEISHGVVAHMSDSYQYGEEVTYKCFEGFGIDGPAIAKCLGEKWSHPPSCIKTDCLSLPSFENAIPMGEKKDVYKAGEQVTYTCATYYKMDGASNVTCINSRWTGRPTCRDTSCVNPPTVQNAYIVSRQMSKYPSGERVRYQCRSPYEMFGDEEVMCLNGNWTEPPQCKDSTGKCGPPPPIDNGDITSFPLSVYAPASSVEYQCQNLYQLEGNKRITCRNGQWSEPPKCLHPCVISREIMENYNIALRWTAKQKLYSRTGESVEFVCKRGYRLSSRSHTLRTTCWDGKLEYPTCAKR

| Substance | effect of a mutation on the interaction |
| --- | --- |
| Serine-aspartate repeat-containing protein E (Staphylococcus aureus (strain Mu50 / ATCC 700699)), Q932F7 D334A | decreasing interaction |
| Serine-aspartate repeat-containing protein E (Staphylococcus aureus (strain Mu50 / ATCC 700699)), Q932F7 D588A | disrupting interaction |
| Serine-aspartate repeat-containing protein E (Staphylococcus aureus (strain Mu50 / ATCC 700699)), Q932F7 L335A | decreasing interaction |
| Serine-aspartate repeat-containing protein E (Staphylococcus aureus (strain Mu50 / ATCC 700699)), Q932F7 Q419A | decreasing interaction |
